T1: Fc fusion protein of the RBD-SD1 region of HCoV-OC43 (HCoV-OC43, UniProt P36334 318-675)
T1 construct: domain: RBD-SD1 region
T1 sequence: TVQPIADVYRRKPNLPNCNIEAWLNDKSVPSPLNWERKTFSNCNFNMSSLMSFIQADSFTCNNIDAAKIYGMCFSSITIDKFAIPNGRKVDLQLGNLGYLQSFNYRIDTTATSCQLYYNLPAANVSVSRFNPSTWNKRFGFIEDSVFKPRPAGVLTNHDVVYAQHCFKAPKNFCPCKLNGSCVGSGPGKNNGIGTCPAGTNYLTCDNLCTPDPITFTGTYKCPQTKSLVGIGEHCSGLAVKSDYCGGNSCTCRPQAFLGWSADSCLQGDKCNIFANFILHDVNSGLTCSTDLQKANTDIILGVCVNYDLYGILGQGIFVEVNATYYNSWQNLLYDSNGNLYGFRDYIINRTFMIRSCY

T2: Fc fusion protein of the RBD-SD1 region of MERS-CoV (MERS-CoV, UniProt K9N5Q8 367-655)
T2 sequence: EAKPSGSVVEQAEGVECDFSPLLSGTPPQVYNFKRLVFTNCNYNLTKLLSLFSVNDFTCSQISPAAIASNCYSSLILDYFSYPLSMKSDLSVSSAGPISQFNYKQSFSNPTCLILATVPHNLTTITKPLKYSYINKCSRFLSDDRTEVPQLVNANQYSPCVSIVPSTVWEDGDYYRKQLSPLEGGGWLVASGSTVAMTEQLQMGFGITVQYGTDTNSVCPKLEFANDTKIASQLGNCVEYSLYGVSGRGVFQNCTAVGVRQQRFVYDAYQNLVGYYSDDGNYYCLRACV

T3: Fc fusion protein of the RBD-SD1 region of HCoV-HKU1 (HCoV-HKU1, UniProt Q5MQD0 310-677)
T3 construct: domain: RBD-SD1 region
T3 sequence: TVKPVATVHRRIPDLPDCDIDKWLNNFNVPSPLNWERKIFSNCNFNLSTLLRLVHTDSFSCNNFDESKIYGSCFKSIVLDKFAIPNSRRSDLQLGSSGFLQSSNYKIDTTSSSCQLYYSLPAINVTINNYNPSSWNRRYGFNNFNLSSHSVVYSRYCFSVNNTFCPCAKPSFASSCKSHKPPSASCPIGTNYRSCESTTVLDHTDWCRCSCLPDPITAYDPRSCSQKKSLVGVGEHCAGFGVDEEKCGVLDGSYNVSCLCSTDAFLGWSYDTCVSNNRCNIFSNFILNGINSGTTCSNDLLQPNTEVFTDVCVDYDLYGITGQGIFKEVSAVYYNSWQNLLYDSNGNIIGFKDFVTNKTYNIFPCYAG


Tests used:
[1] = target: T4, Spike protein of authentic SARS-CoV-2 (Munich isolate 984) (SARS-CoV-2, UniProt P0DTC2 14-1273); experiment: cell-based or functional assay
[2] = target: T1, Fc fusion protein of the RBD-SD1 region …; experiment: ELISA on captured RBD-SD1-Fc
[3] = target: T2, Fc fusion protein of the RBD-SD1 region …; experiment: ELISA on captured RBD-SD1-Fc
[4] = target: T3, Fc fusion protein of the RBD-SD1 region …; experiment: ELISA on captured RBD-SD1-Fc
[5] = target: Fc fusion protein of the RBD-SD1 region of SARS-CoV (SARS-CoV, UniProt P59594 306-577); experiment: ELISA on captured RBD-SD1-Fc
beta-2 microglobulin = beta-2 microglobulin (Homo sapiens (Human), UniProt P61769 21-119); experiment: routine laboratory ELISA
[6] = target: SARS-CoV-2 S protein-RBD-mFc (SARS-CoV-2, UniProt P0DTC2 319-537)
[7] = target: T4, Spike protein of authentic SARS-CoV-2 …; experiment: cell-based or functional assay; parameters: IC90 Neutralizing Assay: unit not given beside the values

Chain of beta-2 microglobulin (P61769 21-119 limits assumed): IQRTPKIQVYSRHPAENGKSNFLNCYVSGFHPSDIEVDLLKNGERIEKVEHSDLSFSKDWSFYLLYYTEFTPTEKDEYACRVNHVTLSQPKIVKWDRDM

Binder	IC50 (PRNT, authentic SARS-CoV-2) [1] [µg/mL]	binding result [2]	binding result [3]	binding result [4]	binding result [5]	binding result (beta-2 microglobulin)	Kd [6] [nM]	IC50 Neutralizing Assay [7]	IC90 Neutralizing Assay [7]
HL CV07-222 (antibody, V domains shown) VH: QVQLVQSGAEVKKPGASVKVSCKASGYTFTDYYVHWVRQAPGQGLEWMGWINPISGGTNYAQKFQGRVTMTRDTSISTAYMELSRLRSDDTAVYYCARGPYYYDSSGSLGAFDIWGQGTMVTVSS VL: QSALTQPASVSGSPGQSITISCTGTSSDVGSYNLVSWYQQHPGKAPKLMIYEGSKRPSGVSNRFSGSKSGNTASLTISGLQAEDEAHYYCCSYAGGSTSYVFGTGTKVTVLG	0.0078	no binding (tested: 1 µg/ml)	no binding (tested: 1 µg/ml)	no binding (tested: 1 µg/ml)	no binding (tested: 1 µg/ml)	no binding (tested: 50 µg/ml)	0.00697	< 0.05 µg/mL	–
HK CV38-221 (antibody, V domains shown) VH: EVQLVESGGGLVQPGGSLRLSCAASGITVSSNYMIWVRQAPGKGLEWVSVIYSGGSTYYADSVKGRFTISRDNSKNTLYLQMNSLRAEDTAVYYCARGFGDYYFDYWGQGTLVTVSS VL: EIVLTQSPGTLSLSPGERATLSCRASQSVSSSYFAWYQQKPGQAPRLLIYGASSRATGIPDRFSGSGSGTDFTLTISRLEPEDFAVYYCQQLYTFGQGTKLEIKR	0.173	no binding (tested: 1 µg/ml)	no binding (tested: 1 µg/ml)	no binding (tested: 1 µg/ml)	no binding (tested: 1 µg/ml)	no binding (tested: 50 µg/ml)	0.499	–	–
HK CV38-113 (antibody, V domains shown) VH: EVQLVESGGGLVQPGGSLRLSCAASGFTVSSNYMSWVRQAPGKGLEWVSVIYSGGSTYYADSVKGRFTISRHNSKNTLYLQMNSLRAEDTAVYFCARGGRLADAAGDYWGQGTLVTVSS VL: not shown	0.0208	no binding (tested: 1 µg/ml)	no binding (tested: 1 µg/ml)	no binding (tested: 1 µg/ml)	no binding (tested: 1 µg/ml)	no binding (tested: 50 µg/ml)	0.134	~0.05 µg/mL	–
HK CV38-139 (antibody, V domains shown) VH: EVQLVESGGGLVQPGGSLRLSCAASGFTVSSNYMSWVRQAPGKGLEWVSVFYSGGSTFYADSVKGRFTISRDNSKNTLYLQMNSLRAEDTAVYYCARGHYDLFDYWGQGTLVTVSS VL: DIQLTQSPSFLSASVGDRVTITCRASQGISSYLAWYQQKPGKAPKLLIYAASTLQSGVPSRFSGSGSGTEFTLTISSLQPEDFATYYCQQLNSYPPGTFGPGTKVDIKR	0.0732	no binding (tested: 1 µg/ml)	no binding (tested: 1 µg/ml)	no binding (tested: 1 µg/ml)	no binding (tested: 1 µg/ml)	no binding (tested: 50 µg/ml)	0.277	–	–
HK CVX1-126 (antibody, V domains shown) VH: EVQLVESGGGLVQPGGSLRLSCAASGLTVSSNYMSWVRQAPGKGLEWVSVIYSGGSTYYADSVKGRFTISRHNSKNTLYLQMNSVRAEDTAVYYCARDLSEGGMDVWGQGTTVTVSS VL: DIQMTQSPSSVSASVGDRVTITCRASQGISSWLAWYQQKPGKAPKLLIYAASTLQSGVPSRFSGSGSGTDFTLTISSLQPEDFATYYCQQANGFPPLFGGGTKVEIKR	0.0717	no binding (tested: 1 µg/ml)	no binding (tested: 1 µg/ml)	no binding (tested: 1 µg/ml)	no binding (tested: 1 µg/ml)	no binding (tested: 50 µg/ml)	0.243	–	–
HK CVX2-106 (antibody, V domains shown) VH: QVQLVQSGAEVKKPGSSVKVSCKASGGTFSSYAISWVRQAPGQGLEWMGGIIPIFGTANYAQKFQGRVTITADESTSTAYMELSSLRSEDTAVYYCATRKETTVTTSLVYGMDVWGQGTTVTVSS VL: not shown	0.0176	no binding (tested: 1 µg/ml)	no binding (tested: 1 µg/ml)	no binding (tested: 1 µg/ml)	no binding (tested: 1 µg/ml)	no binding (tested: 50 µg/ml)	–	~0.5 µg/mL	–
HL CV07-262 (antibody, V domains shown) VH: QVQLVQSGAEVKKPGASVKVSCKASGYTFTGYYMHWVRQAPGQGLEWMGWINPNSGGTNYAQTFQGRVTMTRDTSITTTYMELSRLRSDDTAVYYCARVGWYDFGTPGDYYYYYGMDVWGQGTTVTVSS VL: QSALTQPASVSGSPGQSITISCTGTSSDVGSYNLVSWYQQHPGKAPKLMIYEGSKRPSGVSNRFSGSKSGNTASLTISGLQAEDEADYFCCSYAGTSTFVFGTGTKVTVLG	0.0071	no binding (tested: 1 µg/ml)	no binding (tested: 1 µg/ml)	no binding (tested: 1 µg/ml)	no binding (tested: 1 µg/ml)	no binding (tested: 50 µg/ml)	0.079	< 0.05 µg/mL	~500
HL CV07-255 (antibody, V domains shown) VH: not shown VL: QSALTQPASVSGSPGQSITISCTRTSSDVESYNLVSWYQQHPGKAPKLMIYEVSKRPSGISNRFSGSKSGNTASLTISGLQAEDEADYYCCSYAGHSTWVFGGGTELTVLG	0.0145	no binding (tested: 1 µg/ml)	no binding (tested: 1 µg/ml)	no binding (tested: 1 µg/ml)	no binding (tested: 1 µg/ml)	no binding (tested: 50 µg/ml)	–	~0.05 µg/mL	–
HL CV07-267 (antibody, V domains shown) VH: not shown VL: QSALTQPASVSGSPGQSITISCTGTSSDVGSYNLVSWYQQHPGKAPKLMIYEVSKRPSGVSNRFSGSKSGNTASLTISGLQAEDEADYYCCSYAGSSSWVFGGGTKLTVLG	–	–	–	–	–	–	–	~500	–
HL CV07-270 (antibody, V domains shown) VH: QVQLVESGGGLVKPGGSLRLSCAASGFTFSDYYMTWIRQAPGKGLEWVSYISSSGSTIYYADSVKGRFTISRDNAKNSLYLQMNSLRAEDTAVYYCARARGSSGWYRIGTRWGNWFDPWGQGTLVTVSS VL: QSALTQPASVSGSPGQSITISCTGTSSDVGGYNYVSWYQQHPGKAPKLMIYEVSNRPSGVSNRFSGSKSGNTASLTISGLQAEDEADYYCSSYTSSSNVVFGGGTMLTVLG	0.0823	no binding (tested: 1 µg/ml)	no binding (tested: 1 µg/ml)	no binding (tested: 1 µg/ml)	no binding (tested: 1 µg/ml)	no binding (tested: 50 µg/ml)	–	–	~500
HK CV07-209 (antibody, V domains shown) VH: QVQLVESGGGLVKPGGSLRLSCAASGFTFSDYYMSWIRQAPGKGLEWVSYISSSVSTIYYADSVKGRFTISRDNAKNSLYLQMNSLRAEDTAVYYCARDGVIPPRFDYWGQGTLVTVSS VL: not shown	0.0031	no binding (tested: 1 µg/ml)	no binding (tested: 1 µg/ml)	no binding (tested: 1 µg/ml)	no binding (tested: 1 µg/ml)	no binding (tested: 50 µg/ml)	0.006	< 0.05 µg/mL	–
